Measurements: publication PMC11189624 (2024)

Target: F-actin (rabbit skeletal actin) (Oryctolagus cuniculus (Rabbit), UniProt P68135)
Test: F-actin co-sedimentation (SDS-PAGE/CBB); actin in filamentous form; binding antagonized by Myo5a-MTD (mutually exclusive with exon-G)

B1: GST-Mlph-ABD (the GST-tagged ABD of Mlph, residues 401–590) (protein)
chain: SSEDETKPDGTFLGGSPKVCTDTGHMETQERNPRSPGNPARPTKSTDEELSEMEDRVAMTASEVQQAESEISDIESRIAALRAAGLTVKPSGKPRRKSGIPIFLPRVTEKLDRIPKTPPADPDDQAKMPKATTAVPSLLRRKYSPSSQGVDSGSFDRKSVYRGSLTQRNPNGRRGTARHIFAKPVMAQQP
B1: binds.
